Laboratory results from publication PMC12447900.

Key:
[1] = target: recombinant HA-tagged Vimentin (Vimentin-HA) (human) (UniProt P08670); test: ELISA; Vimentin-HA coated as ligand at 10 ug/ml in PBS on polystyrene wells; AP-MS candidate as analyte, 1 h at RT in PBS, 0.1 % BSA, 0.02 % Tween-20; detected by anti-SpyTag antibody; approximate Kd by one-site total saturation binding fit
[2] = target: EPHA2, recombinant ectodomain (human) (UniProt P29317); test: ELISA; AP-MS candidate coated as ligand at 10 ug/ml in PBS on polystyrene wells; Vimentin-HA as analyte, 30 min at RT in PBS, 0.1 % BSA, 0.02 % Tween-20; detected by anti-HA-tag antibody; approximate Kd by one-site total saturation binding fit
[3] = target: EPHB2, recombinant ectodomain (human) (UniProt P29323); test: as above
[4] = target: LRRC15, recombinant ectodomain (human) (UniProt Q8TF66); test: as above

Row | Kd [1] | Kd [2] | Kd [3] | Kd [4] | Substance
1 | 0.232 µM | – | – | – | DKK1, recombinant (from UniProt O94907 32-266) (ligand)
2 | 0.119 µM | – | – | – | TFRC, recombinant ectodomain (from UniProt P02786 89-760) (receptor)
3 | – | 0.0207 µM | 0.0653 µM | 0.0536 µM | recombinant HA-tagged Vimentin (Vimentin-HA) (from UniProt P08670 1-466) (natural protein)
